# Data as given in patent publication US9555076B2, “Neuregulin based methods and compositions for treating cardiovascular diseases” (Zensun (Shanghai) Science & Technology, Co., Ltd., priority 2002, dated 2017).
# Marks after values point to notes of the source that are not given here.
# System: acute myocardial injury caused by viral (Coxsackie B3) infection in mice
# Assay: Survival of mice infected with Coxsackie B3 virus
# Format: in vivo, BALB/C mice
# Details: mice n = 20
# Procedure: 0.2 ml of 100×TCID50 CVB3 provided by Zhong Shan Hospital affiliated to Fudan University was injected intra-abdominally and established myocarditis model. Within the following week, the mouse manifested pilo-erection, depilation, emaciation, dullness and death, about half of the tested animals died at the 8th day.
# Intravenous injection of the testing drug into the tail vein was carried out the same day of intra-abdominal viral infection in mice, the injection was performed for consecutive 5 days, animal survival rate was monitored, after completion of the experiment, echocardiograph, myocardial pathologic examination, serum troponin determination were carried out.
# The death status of model animals in various testing drug group was monitored.
# • Normal mice control group, model group and testing drug group were set up; • Normal mice control group (n=10); • Model group (n=20): Prepared buffer solution was injected; • Testing drug group (n=20): […] courses with 20 animals assigned for each group; • Placebo control group (n=20): Intra-abdominal injection of non-CVB3 freeze-thaw cellular supernatant, 0.2 ml/animal. 10.2 Dosage Set Up, Preparation of Testing Drug, Route of Drug Administration, Times of Drug Administration, Concentration and Volume of the Testing Drug • rhNRG-1β was diluted with preparation buffer solution (10 mM PB, 0.2% human serum albumin, 5% mannitol to needed concentration; • Three drug administration groups were set up, intravenous injection for consecutive 3-day, 5-day and 7-day, drug volume for each dose was 0.2 ml/animal; • Drug administration of the model group was intravenous injection into the tail vein of mice, once every day (qd), for consecutive 7 days, drug volume for each dose was 0.2 ml/animal. 7.3 Method of the Experiment 7.3.1 Set Up of Acute Viral Myocariditis Animal Model in Mice
molecule,measurement,setting,value
"rhNRG-1 β: Recombinant human neuregulin fragment of 61 amino acid (SEQ ID NO:4), 3 disulfide bonds, expressed in E. coli (protein, listed as Homo sapiens, disulfide (positions not given here)) SHLVKCAEKEKTFCVNGGECFMVKDLSNPSRYLCKCPNEFTGDRCQNYVMASFYKAEELYQ",Numbers of survival animals,"5 μg/kg (so in the source) iv qd × 5, 1st day, (I)",20
same,Numbers of survival animals,"5 μg/kg (so in the source) iv qd × 5, 2nd day, (I)",20
same,Numbers of survival animals,"5 μg/kg (so in the source) iv qd × 5, 3rd day, (I)",20
same,Numbers of survival animals,"5 μg/kg (so in the source) iv qd × 5, 4th day, (I)",19
same,Numbers of survival animals,"5 μg/kg (so in the source) iv qd × 5, 5th day, (I)",18
same,Numbers of survival animals,"5 μg/kg (so in the source) iv qd × 5, 6th day, (I)",15
same,Numbers of survival animals,"5 μg/kg (so in the source) iv qd × 5, 7th day, (I)",13
same,Numbers of survival animals,"5 μg/kg (so in the source) iv qd × 5, killed, (I)",10
same,Numbers of survival animals,"7.5 μg/kg iv qd × 5, 1st day, (II)",20
same,Numbers of survival animals,"7.5 μg/kg iv qd × 5, 2nd day, (II)",20
same,Numbers of survival animals,"7.5 μg/kg iv qd × 5, 3rd day, (II)",20
same,Numbers of survival animals,"7.5 μg/kg iv qd × 5, 4th day, (II)",18
same,Numbers of survival animals,"7.5 μg/kg iv qd × 5, 5th day, (II)",17
same,Numbers of survival animals,"7.5 μg/kg iv qd × 5, 6th day, (II)",14
same,Numbers of survival animals,"7.5 μg/kg iv qd × 5, 7th day, (II)",11
same,Numbers of survival animals,"7.5 μg/kg iv qd × 5, killed, (II)",10
same,Numbers of survival animals,"15 μg/kg iv qd × 5, 1st day, (I)",20
same,Numbers of survival animals,"15 μg/kg iv qd × 5, 1st day, (II)",20
same,Numbers of survival animals,"15 μg/kg iv qd × 5, 2nd day, (I)",20
same,Numbers of survival animals,"15 μg/kg iv qd × 5, 2nd day, (II)",20
same,Numbers of survival animals,"15 μg/kg iv qd × 5, 3rd day, (I)",20
same,Numbers of survival animals,"15 μg/kg iv qd × 5, 3rd day, (II)",20
same,Numbers of survival animals,"15 μg/kg iv qd × 5, 4th day, (I)",20
same,Numbers of survival animals,"15 μg/kg iv qd × 5, 4th day, (II)",19
same,Numbers of survival animals,"15 μg/kg iv qd × 5, 5th day, (I)",19
same,Numbers of survival animals,"15 μg/kg iv qd × 5, 5th day, (II)",18
same,Numbers of survival animals,"15 μg/kg iv qd × 5, 6th day, (I)",17
same,Numbers of survival animals,"15 μg/kg iv qd × 5, 6th day, (II)",16
same,Numbers of survival animals,"15 μg/kg iv qd × 5, 7th day, (I)",14
same,Numbers of survival animals,"15 μg/kg iv qd × 5, 7th day, (II)",13
same,Numbers of survival animals,"15 μg/kg iv qd × 5, killed, (I)",13
same,Numbers of survival animals,"15 μg/kg iv qd × 5, killed, (II)",13
same,Number of survival animal,"30 μg/kg iv qd × 3, 1st day, (I)",20
same,Number of survival animals,"30 μg/kg iv qd × 3, 1st day, (II)",20
same,Number of survival animal,"30 μg/kg iv qd × 3, 2nd day, (I)",20
same,Number of survival animals,"30 μg/kg iv qd × 3, 2nd day, (II)",20
same,Number of survival animal,"30 μg/kg iv qd × 3, 3rd day, (I)",20
same,Number of survival animals,"30 μg/kg iv qd × 3, 3rd day, (II)",20
same,Number of survival animal,"30 μg/kg iv qd × 3, 4th day, (I)",19
same,Number of survival animals,"30 μg/kg iv qd × 3, 4th day, (II)",20
same,Number of survival animal,"30 μg/kg iv qd × 3, 5th day, (I)",18
same,Number of survival animals,"30 μg/kg iv qd × 3, 5th day, (II)",19
same,Number of survival animal,"30 μg/kg iv qd × 3, 6th day, (I)",16
same,Number of survival animals,"30 μg/kg iv qd × 3, 6th day, (II)",16
same,Number of survival animal,"30 μg/kg iv qd × 3, 7th day, (I)",14
same,Number of survival animals,"30 μg/kg iv qd × 3, 7th day, (II)",15
same,Number of survival animal,"30 μg/kg iv qd × 3, killed, (I)",13
same,Number of survival animals,"30 μg/kg iv qd × 3, killed, (II)",15
same,Numbers of survival animals,"30 μg/kg iv qd × 5, 1st day, (I)",20
same,Numbers of survival animals,"30 μg/kg iv qd × 5, 1st day, (II)",20
same,Number of survival animal,"30 μg/kg iv qd × 5, 1st day, Example 5 (I)",20
same,Number of survival animals,"30 μg/kg iv qd × 5, 1st day, Example 5 (II)",20
same,Numbers of survival animals,"30 μg/kg iv qd × 5, 2nd day, (I)",20
same,Numbers of survival animals,"30 μg/kg iv qd × 5, 2nd day, (II)",20
same,Number of survival animal,"30 μg/kg iv qd × 5, 2nd day, Example 5 (I)",20
same,Number of survival animals,"30 μg/kg iv qd × 5, 2nd day, Example 5 (II)",20
same,Numbers of survival animals,"30 μg/kg iv qd × 5, 3rd day, (I)",20
same,Numbers of survival animals,"30 μg/kg iv qd × 5, 3rd day, (II)",20
same,Number of survival animal,"30 μg/kg iv qd × 5, 3rd day, Example 5 (I)",20
same,Number of survival animals,"30 μg/kg iv qd × 5, 3rd day, Example 5 (II)",20
same,Numbers of survival animals,"30 μg/kg iv qd × 5, 4th day, (I)",20
same,Numbers of survival animals,"30 μg/kg iv qd × 5, 4th day, (II)",20
same,Number of survival animal,"30 μg/kg iv qd × 5, 4th day, Example 5 (I)",20
same,Number of survival animals,"30 μg/kg iv qd × 5, 4th day, Example 5 (II)",20
same,Numbers of survival animals,"30 μg/kg iv qd × 5, 5th day, (I)",20
same,Numbers of survival animals,"30 μg/kg iv qd × 5, 5th day, (II)",19
same,Number of survival animal,"30 μg/kg iv qd × 5, 5th day, Example 5 (I)",19
same,Number of survival animals,"30 μg/kg iv qd × 5, 5th day, Example 5 (II)",19
same,Numbers of survival animals,"30 μg/kg iv qd × 5, 6th day, (I)",18
same,Numbers of survival animals,"30 μg/kg iv qd × 5, 6th day, (II)",18
same,Number of survival animal,"30 μg/kg iv qd × 5, 6th day, Example 5 (I)",19
same,Number of survival animals,"30 μg/kg iv qd × 5, 6th day, Example 5 (II)",19
same,Numbers of survival animals,"30 μg/kg iv qd × 5, 7th day, (I)",17
same,Numbers of survival animals,"30 μg/kg iv qd × 5, 7th day, (II)",17
same,Number of survival animal,"30 μg/kg iv qd × 5, 7th day, Example 5 (I)",18
same,Number of survival animals,"30 μg/kg iv qd × 5, 7th day, Example 5 (II)",18
same,Numbers of survival animals,"30 μg/kg iv qd × 5, killed, (I)",16*
same,Numbers of survival animals,"30 μg/kg iv qd × 5, killed, (II)",17*
same,Number of survival animal,"30 μg/kg iv qd × 5, killed, Example 5 (I)",17*
same,Number of survival animals,"30 μg/kg iv qd × 5, killed, Example 5 (II)",18*
same,Number of survival animal,"30 μg/kg iv qd × 7, 1st day, (I)",20
same,Number of survival animals,"30 μg/kg iv qd × 7, 1st day, (II)",20
same,Number of survival animal,"30 μg/kg iv qd × 7, 2nd day, (I)",20
same,Number of survival animals,"30 μg/kg iv qd × 7, 2nd day, (II)",20
same,Number of survival animal,"30 μg/kg iv qd × 7, 3rd day, (I)",20
same,Number of survival animals,"30 μg/kg iv qd × 7, 3rd day, (II)",20
same,Number of survival animal,"30 μg/kg iv qd × 7, 4th day, (I)",20
same,Number of survival animals,"30 μg/kg iv qd × 7, 4th day, (II)",20
same,Number of survival animal,"30 μg/kg iv qd × 7, 5th day, (I)",20
same,Number of survival animals,"30 μg/kg iv qd × 7, 5th day, (II)",20
same,Number of survival animal,"30 μg/kg iv qd × 7, 6th day, (I)",19
same,Number of survival animals,"30 μg/kg iv qd × 7, 6th day, (II)",19
same,Number of survival animal,"30 μg/kg iv qd × 7, 7th day, (I)",19
